From patent publication US20260125472A1 (HEFEI TG IMMUNOPHARMA, published 2026)

Tests used:
[1] = target: T1, PDL1 on A-375 melanoma cells, HCT-15 colorectal cancer cells and A549 lung cancer cells (UniProt Q9NZQ7 19-290, limits assumed); experiment: flow cytometry, A549 cells, MFI [panel B]
T1 construct: whole, on cells
Summary of the method: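 Cells were blocked with goat serum at 4° C for 30 min, then incubated with serially diluted bispecific antibodies or hIgG1LALA control at 4° C for 30 min. Bound antibody was detected with Alexa-647 anti-human IgG (4° C, 30 min, dark) and read by flow cytometry.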

PDL1 protein [2] = target: T2, PDL1 protein (UniProt Q9NZQ7 19-238); experiment: ELISA, coated PDL1 protein, OD450 [panels A, B]
T2 construct: Bought recombinant protein
T2 sequence (Q9NZQ7 19-238 limits assumed): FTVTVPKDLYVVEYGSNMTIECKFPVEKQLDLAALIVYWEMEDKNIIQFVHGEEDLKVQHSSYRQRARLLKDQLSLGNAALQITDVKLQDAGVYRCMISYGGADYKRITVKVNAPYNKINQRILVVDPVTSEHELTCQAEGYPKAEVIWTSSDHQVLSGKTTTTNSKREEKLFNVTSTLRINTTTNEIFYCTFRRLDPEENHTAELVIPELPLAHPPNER
Experimental: (3) PDL1 protein (purchased from Acro) was diluted to 2 μg/ml with PBS buffer, added to a 96-well plate at a volume of 100 μL/well, and placed at 4° C. overnight. The PBS buffer in the 96-well plate was aspirated, and the plate was washed 6 times with PBST (pH 7.2 PBS containing 0.10% Tween 20) buffer. Then, PBS/10% BSA was added at 200 μL/well and incubated at 37° C. for 2 h for blocking. The blocking solution was removed, and the plate was washed six times with PBST. Then, the to-be-tested bispecific antibodies serially diluted with PBST/0.05% BSA, Cross3×PDL1, Cross303×PDL1, Cross307×PDL1, Cross308×PDL1, Cross309×PDL1, Cross310×PDL1, Cross311×PDL1, Cross312×PDL1, Cross313×PDL1, Cross314×PDL1, Cross316×PDL1, Cross317×PDL1, Cross318×PDL1, Cross323×PDL1, Cross325×PDL1, Cross326×PDL1, and control IgG1LALA (purchased from Bio-Tech) were added at 100 μL/well, and incubated at 37° C. for 1 h. The reaction system was removed, and the plate was washed 6 times with PBST. Then, the cells were incubated at 37° C. for 1 h with HRP (horseradish peroxidase)-labeled anti-human secondary antibody (Fab specific) (purchased from Sigma) serially diluted with PBST/0.05% BSA at 100 μL/well. After the plate was washed six times with PBST, TMB (tetramethylbenzidine) was added at 80 μL/well and incubated at room temperature for 3 min. […] The absorbance was read at 450 nm using a microplate reader.

CD3E&D protein = target: T3, CD3E&D protein (UniProt P04234 22-105); experiment: ELISA, coated CD3E&D protein, OD450 [panel A]
T3 construct: Purchased from Acro; also called CD3 E&D antigens; CD3E&D antigen protein
T3 sequence (chain, as listed by the source limits assumed, chain 1 of 2): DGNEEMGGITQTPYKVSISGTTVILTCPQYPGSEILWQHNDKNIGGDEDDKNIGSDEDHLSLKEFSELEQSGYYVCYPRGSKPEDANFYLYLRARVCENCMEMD
T3 sequence (P04234 22-105 limits assumed, chain 2 of 2): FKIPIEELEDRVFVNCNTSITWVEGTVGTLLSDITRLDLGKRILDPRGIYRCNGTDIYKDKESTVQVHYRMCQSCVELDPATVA
Description: In this example, the binding properties of the CD3×Trop2 and CD3×PDL1 bispecific antibody (the production method and the amino acid sequences of the heavy and light chains were shown in Example 1) were detected by using ELISA. The CD3E&D, Trop2, or PDL1 protein was coated onto 96-well plates by inventors, and the strength of the signal after the addition of the antibody was used to determine the binding properties of the antibody and the corresponding protein.
(1) CD3E&D protein (purchased from Acro) was diluted to 2 μg/ml with PBS buffer, added to a 96-well plate at a volume of 100 μL/well, and placed at 4° C. overnight. The PBS buffer in the 96-well plate was aspirated, and the plate was washed 6 times with PBST (pH 7.2 PBS containing 0.1% Tween 20) buffer. Then, 200 μL/well PBS/10% BSA was added and incubated at 37° C. for 2 h for blocking. The blocking solution was removed, and the plate was washed 6 times with PBST. […] The absorbance was read at 450 nm using a microplate reader.

PDL1 protein [3] = target: T2, PDL1 protein; experiment: ELISA, coated PDL1 protein, OD450 [panel A]
Summary of the method: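 PDL1 protein coated at 2 μg/ml overnight at 4 °C, blocked with PBS/10% BSA; serially diluted bispecific antibodies or control IgG1LALA bound 1 h at 37 °C. Detection with HRP anti-human Fab secondary antibody and TMB for 3 min, stopped with sulfuric acid, absorbance at 450 nm.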

CD3 on CD8 T cells = target: T4, CD3 on CD8 T cells (Homo sapiens (Human), UniProt P07766 23-207); experiment: flow cytometry, CD8 T cells in PBMCs, binding ratio % [panel A]
T4 construct: Native CD3 complex on CD8 T cells among PBMCs; also called T cells (PBMCs gated with anti-human CD8 antibody)
T4 sequence (P07766 23-207 limits assumed): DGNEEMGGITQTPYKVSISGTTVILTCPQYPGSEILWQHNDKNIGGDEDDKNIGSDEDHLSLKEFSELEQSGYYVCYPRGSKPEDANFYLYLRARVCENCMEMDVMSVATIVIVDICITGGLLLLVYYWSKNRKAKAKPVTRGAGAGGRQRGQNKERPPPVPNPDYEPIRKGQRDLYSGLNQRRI
Experimental: (1) PBMCs were diluted to 2×10⁶/ml with PBS and added to a 1.5 ml EP tube at 100 μl/tube, goat serum was added thereto at 10 μl/tube. The cells were blocked at 4° C. for 30 min. The serially diluted bispecific antibodies, Cross3×Trop2, Cross303×Trop2, Cross307×Trop2, Cross308×Trop2, Cross309×Trop2, Cross310×Trop2, Cross311×Trop2, Cross312×Trop2, Cross313×Trop2, Cross314×Trop2, Cross316×Trop2, Cross317×Trop2, Cross318×Trop2, Cross323×Trop2, Cross325×Trop2, Cross326×Trop2, Cross3×PDL1, Cross313×PDL1, Cross316×PDL1, Cross325×PDL1, and control hIgG1LALA (purchased from Bio-Tech) were added and incubated at 4° C. for 30 min. 1 ml of PBS was added to the EP tube, followed by centrifugation at 3500 rpm for 5 min at 4° C. The supernatant was discarded, and the system was washed again with PBS. After centrifugation, the supernatant was discarded, and the cells were resuspended with PBS at 100 μl/tube. 1 μl/tube Alexa-647-labeled goat anti-human IgG secondary antibody (purchased from Jackson lab) and 0.5 μl/tube PerCP-Cy5.5-labeled anti-human CD8 antibody were added and incubated at 4° C. in the dark for 30 min. The cells were washed twice with PBS. After centrifugation, the supernatant was discarded. The cells were resuspended with 200 μl/tube of PBS and assay is performed by flow cytometry.

T1 sequence (Q9NZQ7 19-290 limits assumed): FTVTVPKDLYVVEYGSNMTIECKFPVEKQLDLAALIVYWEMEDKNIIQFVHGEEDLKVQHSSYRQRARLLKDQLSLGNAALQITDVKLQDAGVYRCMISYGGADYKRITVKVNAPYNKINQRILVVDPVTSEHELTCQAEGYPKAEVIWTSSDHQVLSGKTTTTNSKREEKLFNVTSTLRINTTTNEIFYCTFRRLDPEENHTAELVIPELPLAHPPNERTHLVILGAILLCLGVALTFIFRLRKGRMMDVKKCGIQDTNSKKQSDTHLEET

B1: Cross3×PDL1 (bispecific antibody, human IgG1, kappa, L234A L235A)
scFv: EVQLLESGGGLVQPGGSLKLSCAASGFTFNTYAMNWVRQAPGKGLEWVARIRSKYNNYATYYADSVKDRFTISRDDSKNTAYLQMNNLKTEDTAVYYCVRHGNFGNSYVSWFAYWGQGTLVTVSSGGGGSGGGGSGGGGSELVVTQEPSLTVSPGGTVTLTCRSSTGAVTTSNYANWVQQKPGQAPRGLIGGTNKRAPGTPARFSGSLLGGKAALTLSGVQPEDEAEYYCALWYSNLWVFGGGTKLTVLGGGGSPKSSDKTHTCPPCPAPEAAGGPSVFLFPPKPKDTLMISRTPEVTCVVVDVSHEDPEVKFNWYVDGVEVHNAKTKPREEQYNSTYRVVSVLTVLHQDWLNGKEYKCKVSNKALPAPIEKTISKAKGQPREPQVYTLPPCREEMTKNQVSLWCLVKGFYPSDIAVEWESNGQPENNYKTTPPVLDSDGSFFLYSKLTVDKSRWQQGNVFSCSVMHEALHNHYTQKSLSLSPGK
heavy: QVQLVQSGAEVKKPGASVKVSCKASGYSFTGYYMHWVRQAPGQGLEWIGRINPYNGATTYSQNFKDRATMTVDTSISTAYMELSRLRSDDTAVYYCVPTGMGYFLMDYWGQGTLVTVSSASTKGPSVFPLAPSSKSTSGGTAALGCLVKDYFPEPVTVSWNSGALTSGVHTFPAVLQSSGLYSLSSVVTVPSSSLGTQTYICNVNHKPSNTKVDKKVEPKSCDKTHTCPPCPAPEAAGGPSVFLFPPKPKDTLMISRTPEVTCVVVDVSHEDPEVKFNWYVDGVEVHNAKTKPREEQYNSTYRVVSVLTVLHQDWLNGKEYKCKVSNKALPAPIEKTISKAKGQPREPQVCTLPPSREEMTKNQVSLSCAVKGFYPSDIAVEWESNGQPENNYKTTPPVLDSDGSFFLVSKLTVDKSRWQQGNVFSCSVMHEALHNHYTQKSLSLSPGK
light: DIQLTQSPSFLSASVGDRVTITCKASQDVGSAVVWYQQKPGKAPKLLIYWASTRHTGVPSRFSGSGSGTEFTLTISSLQPEDFATYFCQQFTSYPTFGQGTKLEIKRTVAAPSVFIFPPSDEQLKSGTASVVCLLNNFYPREAKVQWKVDNALQSGNSQESVTEQDSKDSTYSLSSTLTLSKADYEKHKVYACEVTHQGLSSPVTKSFNRGEC
notes: also called parent Cross3×PDL1 bispecific antibody
EC50 (read off the curve) [1]: ~1 µg/mL | EC50 (read off the curve) (PDL1 protein [2]): ~200 ng/mL

B2: Cross316×PDL1 (bispecific antibody, human IgG1, kappa, L234A L235A)
scFv: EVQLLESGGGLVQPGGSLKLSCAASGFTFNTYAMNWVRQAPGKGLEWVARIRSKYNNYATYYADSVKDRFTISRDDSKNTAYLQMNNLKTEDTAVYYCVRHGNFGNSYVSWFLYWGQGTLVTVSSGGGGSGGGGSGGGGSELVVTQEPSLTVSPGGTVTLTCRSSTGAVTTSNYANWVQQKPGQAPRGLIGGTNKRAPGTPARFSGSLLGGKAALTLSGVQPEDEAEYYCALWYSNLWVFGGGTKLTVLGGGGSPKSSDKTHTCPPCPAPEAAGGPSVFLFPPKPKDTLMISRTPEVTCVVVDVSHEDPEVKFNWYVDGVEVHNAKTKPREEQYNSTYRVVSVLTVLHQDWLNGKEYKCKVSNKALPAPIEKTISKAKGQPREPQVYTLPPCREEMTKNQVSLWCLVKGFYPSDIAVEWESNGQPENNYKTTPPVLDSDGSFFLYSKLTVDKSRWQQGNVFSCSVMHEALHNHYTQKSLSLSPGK
heavy: QVQLVQSGAEVKKPGASVKVSCKASGYSFTGYYMHWVRQAPGQGLEWIGRINPYNGATTYSQNFKDRATMTVDTSISTAYMELSRLRSDDTAVYYCVPTGMGYFLMDYWGQGTLVTVSSASTKGPSVFPLAPSSKSTSGGTAALGCLVKDYFPEPVTVSWNSGALTSGVHTFPAVLQSSGLYSLSSVVTVPSSSLGTQTYICNVNHKPSNTKVDKKVEPKSCDKTHTCPPCPAPEAAGGPSVFLFPPKPKDTLMISRTPEVTCVVVDVSHEDPEVKFNWYVDGVEVHNAKTKPREEQYNSTYRVVSVLTVLHQDWLNGKEYKCKVSNKALPAPIEKTISKAKGQPREPQVCTLPPSREEMTKNQVSLSCAVKGFYPSDIAVEWESNGQPENNYKTTPPVLDSDGSFFLVSKLTVDKSRWQQGNVFSCSVMHEALHNHYTQKSLSLSPGK
light: DIQLTQSPSFLSASVGDRVTITCKASQDVGSAVVWYQQKPGKAPKLLIYWASTRHTGVPSRFSGSGSGTEFTLTISSLQPEDFATYFCQQFTSYPTFGQGTKLEIKRTVAAPSVFIFPPSDEQLKSGTASVVCLLNNFYPREAKVQWKVDNALQSGNSQESVTEQDSKDSTYSLSSTLTLSKADYEKHKVYACEVTHQGLSSPVTKSFNRGEC
EC50 (read off the curve) [1]: ~1 µg/mL | EC50 (read off the curve) (CD3E&D protein): ~800 ng/mL | EC50 (read off the curve) (PDL1 protein [3]): ~200 ng/mL | EC50 (read off the curve) (CD3 on CD8 T cells): ~0.2 µg/mL
